T1: full length recombinant MPP1 (human, UniProt Q00013 1-466)
T1 construct: MPP1 (p55), human erythroid, full length; also called p55; MPP1(p55)
T1 sequence (looked up): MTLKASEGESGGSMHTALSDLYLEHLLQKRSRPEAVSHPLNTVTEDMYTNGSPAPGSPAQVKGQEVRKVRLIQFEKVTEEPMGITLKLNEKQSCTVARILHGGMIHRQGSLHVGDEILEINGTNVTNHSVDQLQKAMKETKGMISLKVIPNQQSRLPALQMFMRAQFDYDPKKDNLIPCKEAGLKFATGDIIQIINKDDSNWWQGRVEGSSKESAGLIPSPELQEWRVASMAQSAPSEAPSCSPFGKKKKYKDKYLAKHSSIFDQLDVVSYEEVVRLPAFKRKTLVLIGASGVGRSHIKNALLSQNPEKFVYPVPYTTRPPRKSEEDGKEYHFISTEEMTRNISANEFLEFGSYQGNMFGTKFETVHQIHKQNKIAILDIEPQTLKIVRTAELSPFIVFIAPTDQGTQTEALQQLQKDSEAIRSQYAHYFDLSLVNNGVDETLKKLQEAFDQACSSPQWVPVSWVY

B1: MPP1-Mut2 (residues 151–237) (domain or fragment, human, UniProt Q00013 151-237, looked up)
chain: NQQSRLPALQMFMRAQFDYDPKKDNLIPCKEAGLKFATGDIIQIINKDDSNWWQGRVEGSSKESAGLIPSPELQEWRVASMAQSAPS
notes: MPP1 (p55), human, residues 151-237
B2: endogenous MPP1 (HEL cells) (natural protein)
chain: T1 sequence (looked up)
B3: recombinant His-tagged flotillin 1 (natural protein, UniProt O75955-1 1-427, looked up)
chain: MFFTCGPNEAMVVSGFCRSPPVMVAGGRVFVLPCIQQIQRISLNTLTLNVKSEKVYTRHGVPISVTGIAQVKIQGQNKEMLAAACQMFLGKTEAEIAHIALETLEGHQRAIMAHMTVEEIYKDRQKFSEQVFKVASSDLVNMGISVVSYTLKDIHDDQDYLHSLGKARTAQVQKDARIGEAEAKRDAGIREAKAKQEKVSAQYLSEIEMAKAQRDYELKKAAYDIEVNTRRAQADLAYQLQVAKTKQQIEEQRVQVQVVERAQQVAVQEQEIARREKELEARVRKPAEAERYKLERLAEAEKSQLIMQAEAEAASVRMRGEAEAFAIGARARAEAEQMAKKAEAFQLYQEAAQLDMLLEKLPQVAEEISGPLTSANKITLVSSGSGTMGAAKVTGEVLDILTRLPESVERLTGVSISQVNHKPLRTA
notes: flotillin 1; the discussion speaks of bacterially expressed proteins; also called FL1
B4: MPP1-Mut4 (residues 231–466) (domain or fragment, human, UniProt Q00013 231-466, looked up)
chain: MAQSAPSEAPSCSPFGKKKKYKDKYLAKHSSIFDQLDVVSYEEVVRLPAFKRKTLVLIGASGVGRSHIKNALLSQNPEKFVYPVPYTTRPPRKSEEDGKEYHFISTEEMTRNISANEFLEFGSYQGNMFGTKFETVHQIHKQNKIAILDIEPQTLKIVRTAELSPFIVFIAPTDQGTQTEALQQLQKDSEAIRSQYAHYFDLSLVNNGVDETLKKLQEAFDQACSSPQWVPVSWVY
notes: MPP1 (p55), human, residues 231-466; A FLAG form (p3XFLAG-CMV-10) was expressed in HEL cells for the functional tests only
B5: recombinant His-tagged flotillin 2 (natural protein, UniProt Q14254 1-428, looked up)
chain: MGNCHTVGPNEALVVSGGCCGSDYKQYVFGGWAWAWWCISDTQRISLEIMTLQPRCEDVETAEGVALTVTGVAQVKIMTEKELLAVACEQFLGKNVQDIKNVVLQTLEGHLRSILGTLTVEQIYQDRDQFAKLVREVAAPDVGRMGIEILSFTIKDVYDKVDYLSSLGKTQTAVVQRDADIGVAEAERDAGIREAECKKEMLDVKFMADTKIADSKRAFELQKSAFSEEVNIKTAEAQLAYELQGAREQQKIRQEEIEIEVVQRKKQIAVEAQEILRTDKELIATVRRPAEAEAHRIQQIAEGEKVKQVLLAQAEAEKIRKIGEAEAAVIEAMGKAEAERMKLKAEAYQKYGDAAKMALVLEALPQIAAKIAAPLTKVDEIVVLSGDNSKVTSEVNRLLAELPASVHALTGVDLSKIPLIKKATGVQV
notes: flotillin 2; also called FL2
B6: MPP1-Mut3 (residues 211–292) (domain or fragment, human, UniProt Q00013 211-292, looked up)
chain: SKESAGLIPSPELQEWRVASMAQSAPSEAPSCSPFGKKKKYKDKYLAKHSSIFDQLDVVSYEEVVRLPAFKRKTLVLIGASG
notes: MPP1 (p55), human, residues 211-292

How the values were obtained:
[1] = target: B5; experiment: SPR; His-tagged flotillin 1 or 2 captured on a Ni-NTA sensor chip (about 4000 RU), BIAcore T200; untagged MPP1 or its truncated mutants as analytes (at least five concentrations, 50-2000 nM), association 360 s, dissociation 600 s; HBS-T; global fit, 1:1 Langmuir model with mass transport step; conditions: both partners purified
[2] = target: B3; experiment: as above; conditions: both partners purified
[3] = target: B5; experiment: as above; conditions: both partners purified; remark: listed apart in the source
[4] = target: flotillins (endogenous, HEL cells)
[5] = target: flotillins (endogenous, HEL cells); remark: listed apart in the source
[6] = target: T1, full length recombinant MPP1; experiment: SPR; His-tagged flotillin 1 or 2 captured on a Ni-NTA sensor chip (about 4000 RU), BIAcore T200; untagged MPP1 or its truncated mutants as analytes (at least five concentrations, 50-2000 nM), association 360 s, dissociation 600 s; HBS-T; global fit, 1:1 Langmuir model with mass transport step; conditions: both partners purified

Row | Binder | Kd [1] | Kd [2] | koff [2] | kon [2] | Kd [3] | koff [3] | kon [3] | fluorescence lifetime of di-4-ANEPPDHQ (FLIM) in the plasma membrane of HEL cells transfected with MPP1-Mut4-FLAG (~ 3.83 ns) compared to FLAG control (~ 3.98 ns) [4] | reduction of the pERK1/2 level after insulin stimulation in HEL cells transfected with MPP1-Mut4 compared to FLAG control [5] | Kd [6] | koff [6] | kon [6]
1 | B1 | 686 nM | 702 nM | 0.00118 s⁻¹ | 1680 M⁻¹ s⁻¹ | 982 nM | 0.0016 s⁻¹ | 1630 M⁻¹ s⁻¹ | – | – | – | – | –
2 | B2 | – | – | – | – | – | – | – | 0.15 ns | 46% | – | – | –
3 | B3 | – | – | – | – | – | – | – | – | – | 22.8 nM | 0.00103 s⁻¹ | 45000 M⁻¹ s⁻¹
4 | B4 | – | 39.2 nM | 0.000319 s⁻¹ | 8130 M⁻¹ s⁻¹ | 50.2 nM | 0.000281 s⁻¹ | 5600 M⁻¹ s⁻¹ | – | – | – | – | –
5 | B5 | – | – | – | – | – | – | – | – | – | 31 nM | 0.00128 s⁻¹ | 41300 M⁻¹ s⁻¹
6 | B6 | – | 137 nM | 0.000515 s⁻¹ | 3750 M⁻¹ s⁻¹ | 199 nM | 0.000828 s⁻¹ | 4170 M⁻¹ s⁻¹ | – | – | – | – | –
